Target: the molecule itself
Test: crystal structure; DNMT3A(628-912, WT or R882H)-DNMT3L(178-386) tetramer covalently bound to 25-mer zebularine DNA duplex (CGA, CGT or CAG) and SAH; crystals at 4 °C from 0.1 M sodium citrate pH 4.2 or 4.4, PEG8000

B1: DNMT3A R882H mutant, MTase (C-terminal) domain, residues 628-912 (domain or fragment, UniProt Q9Y6K1 628-912, looked up)
chain: AEKRKPIRVLSLFDGIATGLLVLKDLGIQVDRYIASEVCEDSITVGMVRHQGKIMYVGDVRSVTQKHIQEWGPFDLVIGGSPCNDLSIVNPARKGLYEGTGRLFFEFYRLLHDARPKEGDDRPFFWLFENVVAMGVSDKRDISRFLESNPVMIDAKEVSAAHRARYFWGNLPGMNRPLASTVNDKLELQECLEHGRIAKFSKVRTITTRSNSIKQGKDQHFPVFMNEKEDILWCTEMERVFGFPVHYTDVSNMSHLARQRLLGRSWSVPVIRHLFAPLKEYFACV
modifications: catalytic cysteine C710 covalently linked to zebularine of the DNA (in the crystallised complexes)
notes: DNMT3A, MTase domain (C-terminal domain), residues 628-912, with the AML hotspot mutation R882H; R882H is a mutation found in acute myeloid leukemia patients; it was removed by ULP1; also called R882H-mutated DNMT3A; R882H DNMT3A; source: E. coli BL21 DE3 (RIL), co-expressed with DNMT3L, purified (Ni-NTA, Heparin, SEC); not shown: His6-SUMO, N-terminal, cleaved
Does B1 bind?
Result: binds
